For assay [1], the target named is human CD3ε expressed on the cell surface of T cells (Jurkat clone E6-1; human CD8+ T cells) (human) (UniProt P07766). Kind of assay: cell-based or functional assay.
Assay [2] has as its target T1, human CD3ε expressed on the cell surface of T cells (Jurkat clone E6-1; human CD8+ T cells) (human, UniProt P07766 23-207). The experiment in a line: cell-based or functional assay.
Assay [3] has as its target T2, human heterodimeric single-chain CD3εγ extracellular domain (human, UniProt P07766 23-126; P09693 23-116).
T2 construct: extracellular domain; Produced in-house; single-chain protein of the extracellular domains of CD3ε and CD3γ joined by a flexible linker; also called scCD3γε; human CD3ge
Kind of assay: SPR (MASS-1), human scCD3εγ ECD immobilized, scDb injected.

Assay [4] addresses T1, human CD3ε expressed on the cell …. The experiment in a line: cell-based or functional assay. The source holds these as a separate data set.

Substitutions are numbered along the chain they refer to.

T2 sequence (P07766 23-126, chain 1 of 2): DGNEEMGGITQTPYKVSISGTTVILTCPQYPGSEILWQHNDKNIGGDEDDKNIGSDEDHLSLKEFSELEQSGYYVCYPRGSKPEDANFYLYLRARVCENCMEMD
T2 sequence (P09693 23-116, chain 2 of 2): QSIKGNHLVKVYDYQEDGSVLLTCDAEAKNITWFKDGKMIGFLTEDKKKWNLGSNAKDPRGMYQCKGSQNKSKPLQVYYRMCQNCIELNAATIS
T1 sequence (P07766 23-207): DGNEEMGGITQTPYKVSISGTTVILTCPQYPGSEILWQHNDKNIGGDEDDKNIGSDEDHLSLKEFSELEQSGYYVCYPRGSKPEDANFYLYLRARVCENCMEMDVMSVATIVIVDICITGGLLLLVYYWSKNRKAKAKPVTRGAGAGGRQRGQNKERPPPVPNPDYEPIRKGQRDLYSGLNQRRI
Chain of human CD3ε expressed on the cell surface of T cells (Jurkat clone E6-1; human CD8+ T cells) (human) (P07766 23-207): as above

Regarding TR66 (antibody), in assay [1], the Fold increase in CD69 expression [MFI normalized to neg. ctrl.], 1.25 µg/ml anti-CD3 IgG, cross-linked, Jurkat cells, 24 h was determined as 1.6 fold; the Fold increase in CD69 expression [MFI normalized to neg. ctrl.], 5 µg/ml anti-CD3 IgG, cross-linked, Jurkat cells, 24 h stood at 2.2 fold; the Fold increase in CD69 expression [MFI normalized to neg. ctrl.], 20 µg/ml anti-CD3 IgG, cross-linked, Jurkat cells, 24 h is 3 fold.

Consider OKT3 (antibody), for which, in assay [1], the Fold increase in CD69 expression [MFI normalized to neg. ctrl.], 1.25 µg/ml anti-CD3 IgG, cross-linked, Jurkat cells, 24 h was 1.8 fold; the Fold increase in CD69 expression [MFI normalized to neg. ctrl.], 5 µg/ml anti-CD3 IgG, cross-linked, Jurkat cells, 24 h was found to be 2.5 fold; the Fold increase in CD69 expression [MFI normalized to neg. ctrl.], 20 µg/ml anti-CD3 IgG, cross-linked, Jurkat cells, 24 h turned out to be 3.1 fold.

B1: Construct 2 (anti-CD3×anti-IL5R scDb comprising the humanized variable domain of clone-02) (bispecific antibody)
chain: DIQMTQSPSSLSASVGDRVTITCQASQNIYSNLAWYQQKPGKAPKLLIYRASTLASGVPSRFSGSGSGTDFTLTISSLQPEDFATYYCQSNYGINYYGAAFGQGTKLTVLGGGGGSEVQLVESGGGLVQPGGSLRLSCAASGFPLSAYAMIWVRQAPGKGLEWIGMIIRSGTVYYANWAKGRFTISRDNSKNTVYLQMNSLRAEDTAVYYCARRHYNADGYPIGIGDLWGQGTLVTVSSGGGGSGGGGSGGGGSGGGGSDIQMTQSPSSLSASVGDRVTITCQSSESVYSNNRLSWYQQKPGKAPKLLIYSASTLASGVPSRFSGSGSGTDFTLTISSLQPEDFATYYCQGEFSCSSVDCFSFGQGTKLTVLGGGGGSEVQLVESGGGLVQPGGSLRLSCAASGFSLSSYDMTWVRQAPGKGLEWIGIIYVSGSAYYASWAKGRFTISRDNSKNTVYLQMNSLRAEDTAVYYCARINYGLDLWGQGTLVTVSS
In general, Kd refers to the free concentration of one partner at which half of the binding sites on the other are occupied at equilibrium, for simple one-to-one binding. A low value points to tighter binding. Take B1: the “Potency to stimulate IL-2 secretion by T cells [EC50] (CD8+ T cells with CHO-IL5R cells, 16 h)” value in assay [2] was determined as 5.67 nM. Moreover, the Kd in assay [3] was 29.6 nM.

B2: clone-06 (antibody, V domains shown)
VH: QSVEESGGRLVTPGTPLTLTCTVSGFPLSSYAMIWVRQAPGKGLEWIGMILRAGNIYYASWVKGRVTISKTSTTVDLKITSPTTEDTATYFCARRHYNREGYPIGIGDLWGPGTLVTVSS
VL: AQVLTQTPSSVSAAVGGTVTISCQSSESVYNNKRLSWFQQKPGQPPKQLIYTASSLASGVPSRFKGSGSGTQFTLTISDLECDDAATYYCQGEFTCSNADCFTFGGGTEVVVKG
On to B2, for which, in assay [4], the “Fold increase in CD69 expression [MFI normalized to neg. ctrl.], 1.25 µg/ml anti-CD3 IgG, cross-linked, Jurkat cells, 24 h” value came to 2.7 fold; the “Fold increase in CD69 expression [MFI normalized to neg. ctrl.], 5 µg/ml anti-CD3 IgG, cross-linked, Jurkat cells, 24 h” value is 5.1 fold; the “Fold increase in CD69 expression [MFI normalized to neg. ctrl.], 20 µg/ml anti-CD3 IgG, cross-linked, Jurkat cells, 24 h” value turned out to be 5.3 fold.

B3: clone-03 (antibody, V domains shown)
VH: QSLEESGGRLVTPGTPLTLTCTVSGFPLNRYAMLWVRQAPGKGLEWIGLITRADKKYYASWAKGRFTISKTSTTVDLEITGPTTEDTATYFCARRHYNTDGYPIAIGDLWGPGTLVTVSS
VL: B2 VL with S26N, S28N, V29I, N31S, K33N, K47N, T52S, T95N, S97N, N98S
As to B3, in assay [4], the “Fold increase in CD69 expression [MFI normalized to neg. ctrl.], 1.25 µg/ml anti-CD3 IgG, cross-linked, Jurkat cells, 24 h” value stood at 2.6 fold; the “Fold increase in CD69 expression [MFI normalized to neg. ctrl.], 5 µg/ml anti-CD3 IgG, cross-linked, Jurkat cells, 24 h” value was 4.6 fold; the “Fold increase in CD69 expression [MFI normalized to neg. ctrl.], 20 µg/ml anti-CD3 IgG, cross-linked, Jurkat cells, 24 h” value was found to be 6.6 fold.

B4: clone-04 (antibody, V domains shown)
VH: QSLEESGGRLVKPDETLTLTCTVSGFPLSSYAMGWFRQAPGKGLEWIGMILRSDNTYYASWAKGRFTISKTSTTVDLKITSPTTEDTATYFCARRHYNASGNPIAIGDLWGPGTLVTVSS
VL: B2 VL with S22N, E27Q, K33N, Q48L, A53T, Q72E, D83A, T95S, N98R, T103N
For the molecule B4, in assay [4], the “Fold increase in CD69 expression [MFI normalized to neg. ctrl.], 1.25 µg/ml anti-CD3 IgG, cross-linked, Jurkat cells, 24 h” value came out at 2.6 fold; the “Fold increase in CD69 expression [MFI normalized to neg. ctrl.], 5 µg/ml anti-CD3 IgG, cross-linked, Jurkat cells, 24 h” value was 3.5 fold; the “Fold increase in CD69 expression [MFI normalized to neg. ctrl.], 20 µg/ml anti-CD3 IgG, cross-linked, Jurkat cells, 24 h” value was found to be 7.8 fold.

B5: Construct 1 (anti-CD3×anti-IL5R scDb comprising the humanized variable domain of clone-06) (bispecific antibody)
chain: DIQMTQSPSSLSASVGDRVTITCQASQNIYSNLAWYQQKPGKAPKLLIYRASTLASGVPSRFSGSGSGTDFTLTISSLQPEDFATYYCQSNYGINYYGAAFGQGTKLTVLGGGGGSEVQLVESGGGLVQPGGSLRLSCAASGFPLSSYAMIWVRQAPGKGLEWIGMILRAGNIYYASWVKGRFTISRDNSKNTVYLQMNSLRAEDTAVYYCARRHYNREGYPIGIGDLWGQGTLVTVSSGGGGSGGGGSGGGGSGGGGSDIQMTQSPSSLSASVGDRVTITCQSSESVYNNKRLSWYQQKPGKAPKLLIYTASSLASGVPSRFSGSGSGTDFTLTISSLQPEDFATYYCQGEFTCSNADCFTFGQGTKLTVLGGGGGSEVQLVESGGGLVQPGGSLRLSCAASGFSLSSYDMTWVRQAPGKGLEWIGIIYVSGSAYYASWAKGRFTISRDNSKNTVYLQMNSLRAEDTAVYYCARINYGLDLWGQGTLVTVSS
In the case of B5, in assay [2], the “Potency to lyse target cells [EC50] (CHO-IL5R cells, human CD8+ T cells, 88 h)” value amounted to 0.1 nM and the “Potency to stimulate IL-2 secretion by T cells [EC50] (CD8+ T cells with CHO-IL5R cells, 16 h)” value was found to be 0.96 nM. Also, the Kd in assay [3] was determined as 11.5 nM.

B6: clone-02 (antibody, V domains shown)
VH: QSLEESGGRLVTPGTPLTLTCTVSGFPLSAYAMIWVRQAPGKGLEWIGMIIRSGTVYYANWAKGRFTISKTSTTVDLKITSPTTEDTATYFCARRHYNADGYPIGIGDLWGPGTLVTVSS
VL: AQVLTQTPSSVSAVVGGTVTISCQSSESVYSNNRLSWFQQKPGQPPKLLIYSASTLASGVPSRFKGSGSGTQFTLTITDLECDDAATYFCQGEFSCSSVDCFSFGGGTEVVVKG
B6: in assay [4], the “Fold increase in CD69 expression [MFI normalized to neg. ctrl.], 1.25 µg/ml anti-CD3 IgG, cross-linked, Jurkat cells, 24 h” value worked out at 3.3 fold; the “Fold increase in CD69 expression [MFI normalized to neg. ctrl.], 5 µg/ml anti-CD3 IgG, cross-linked, Jurkat cells, 24 h” value stood at 4.6 fold; the “Fold increase in CD69 expression [MFI normalized to neg. ctrl.], 20 µg/ml anti-CD3 IgG, cross-linked, Jurkat cells, 24 h” value is 7.4 fold.

B7: clone-10 (antibody, V domains shown)
VH: B3 VH with N29S, R30S, Y31F, L49M, T51M, D54H, K55N, K56M, G81S, D100Y
VL: AQVLTQTPSSVSAAVGGTATISCQSNENIYSNNRLSWFQQKAGQPPNQLIYSASSLASGVPSRFKGSGSGTQFTLTISDLECDDAATYYCQGEFSCSSADCFTFGGGTEVVVKG
Regarding B7, in assay [4], the “Fold increase in CD69 expression [MFI normalized to neg. ctrl.], 1.25 µg/ml anti-CD3 IgG, cross-linked, Jurkat cells, 24 h” value amounted to 2.6 fold; the “Fold increase in CD69 expression [MFI normalized to neg. ctrl.], 5 µg/ml anti-CD3 IgG, cross-linked, Jurkat cells, 24 h” value was 4.2 fold; the “Fold increase in CD69 expression [MFI normalized to neg. ctrl.], 20 µg/ml anti-CD3 IgG, cross-linked, Jurkat cells, 24 h” value was found to be 6.2 fold.

B8: Construct 3 (anti-CD3×anti-IL5R scDb comprising the humanized variable domain of clone-03) (bispecific antibody)
chain: DIQMTQSPSSLSASVGDRVTITCQASQNIYSNLAWYQQKPGKAPKLLIYRASTLASGVPSRFSGSGSGTDFTLTISSLQPEDFATYYCQSNYGINYYGAAFGQGTKLTVLGGGGGSEVQLVESGGGLVQPGGSLRLSCAVSGFPLNRYAMLWVRQAPGKGLEWIGLITRADKKYYASWAKGRFTISKDNSKNTVYLQMNSLRAEDTAVYYCARRHYNTDGYPIAIGDLWGQGTLVTVSSGGGGSGGGGSGGGGSGGGGSDIQMTQSPSSLSASVGDRVTISCQSNENIYSNNRLSWYQQKPGKAPKLLIYSASSLASGVPSRFSGSGSGTDFTLTISDLEPEDFATYYCQGEFNCNSADCFTFGQGTKLTVLGGGGGSEVQLVESGGGLVQPGGSLRLSCAASGFSLSSYDMTWVRQAPGKGLEWIGIIYVSGSAYYASWAKGRFTISRDNSKNTVYLQMNSLRAEDTAVYYCARINYGLDLWGQGTLVTVSS
For the molecule B8, the dissociation constant (Kd) in assay [3] turned out to be 123 nM.

Values taken from patent US20160090416A1 (NUMAB, published 2016).
